Experimental data as given in publication PMC10786891, “Massively parallel profiling of RNA-targeting CRISPR-Cas13d”.

T1: EsCas13d, nuclease-dead (Eubacterium siraeum, UniProt B0MS50, R295A;H300A;R849A;H854A)
T1 sequence: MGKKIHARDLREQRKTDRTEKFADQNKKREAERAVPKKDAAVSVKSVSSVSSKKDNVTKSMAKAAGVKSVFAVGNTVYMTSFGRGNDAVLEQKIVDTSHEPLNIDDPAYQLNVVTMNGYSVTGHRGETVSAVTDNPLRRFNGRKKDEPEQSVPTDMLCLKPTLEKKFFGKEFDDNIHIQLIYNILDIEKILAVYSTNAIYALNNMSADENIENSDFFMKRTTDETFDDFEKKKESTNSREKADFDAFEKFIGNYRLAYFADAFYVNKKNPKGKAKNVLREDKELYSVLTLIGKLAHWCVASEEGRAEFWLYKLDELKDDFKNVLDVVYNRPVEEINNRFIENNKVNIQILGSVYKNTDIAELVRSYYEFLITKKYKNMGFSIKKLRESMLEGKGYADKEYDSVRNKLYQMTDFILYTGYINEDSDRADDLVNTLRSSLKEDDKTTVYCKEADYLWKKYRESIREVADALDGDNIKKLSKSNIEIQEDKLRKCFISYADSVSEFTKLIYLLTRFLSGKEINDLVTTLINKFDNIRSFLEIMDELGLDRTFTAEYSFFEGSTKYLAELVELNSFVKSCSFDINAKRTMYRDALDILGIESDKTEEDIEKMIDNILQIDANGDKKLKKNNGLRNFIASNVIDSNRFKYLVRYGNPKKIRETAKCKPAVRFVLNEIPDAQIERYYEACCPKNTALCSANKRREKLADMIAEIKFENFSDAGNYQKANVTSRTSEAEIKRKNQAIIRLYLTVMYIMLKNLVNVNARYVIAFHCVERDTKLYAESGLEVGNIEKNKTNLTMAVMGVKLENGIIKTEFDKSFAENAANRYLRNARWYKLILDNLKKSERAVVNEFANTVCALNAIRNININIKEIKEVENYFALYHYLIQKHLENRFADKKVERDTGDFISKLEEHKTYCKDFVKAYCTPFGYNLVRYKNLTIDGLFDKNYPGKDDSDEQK

B1: target 1 C4U,A9G (mixed)
RNA 1: CACCCGUGCAAAAAUGCAGGGGUCUAAAACUGAGCGGAUAACCUCUCUAUGG
RNA 2: GGGAAUGGAUCCACAUCUACGAAUUCGUACCAUAGAGAGGUUGUCCGUUCACCGAGAUCGGAAGAGCACACGU
B2: target 1 MT 5'PFS GUG 3'PFS UAG (mixed)
RNA 1: CACCCGUGCAAAAAUGCAGGGGUCUAAAACUGAGCGGAUAACCUCUCUAUGG
RNA 2: GGGAAUGGAUCCACAUCUACGAAUUCGUGCCAUAGAGAGGUUAUCCGCUCAUAGAGAUCGGAAGAGCACACGU
B3: target 1 MT 5'PFS UAG 3'PFS CUU (mixed)
RNA 1: CACCCGUGCAAAAAUGCAGGGGUCUAAAACUGAGCGGAUAACCUCUCUAUGG
RNA 2: GGGAAUGGAUCCACAUCUACGAAUUCUAGCCAUAGAGAGGUUAUCCGCUCACUUAGAUCGGAAGAGCACACGU
B4: target 1 MT 5'PFS ACG 3'PFS AGC (mixed)
RNA 1: CACCCGUGCAAAAAUGCAGGGGUCUAAAACUGAGCGGAUAACCUCUCUAUGG
RNA 2: GGGAAUGGAUCCACAUCUACGAAUUCACGCCAUAGAGAGGUUAUCCGCUCAAGCAGAUCGGAAGAGCACACGU
B5: target 1 insG 3' of 10,insU 3' of 4 (mixed)
RNA 1: CACCCGUGCAAAAAUGCAGGGGUCUAAAACUGAGCGGAUAACCUCUCUAUGG
RNA 2: GGGAAUGGAUCCACAUCUACGAAUUCGUACCAUAGAGAGGUUGAUCCGCUUCACCGAGAUCGGAAGAGCACACGU
B6: target 1 C4G,A20U (mixed)
RNA 1: CACCCGUGCAAAAAUGCAGGGGUCUAAAACUGAGCGGAUAACCUCUCUAUGG
RNA 2: GGGAAUGGAUCCACAUCUACGAAUUCGUACCUUAGAGAGGUUAUCCGGUCACCGAGAUCGGAAGAGCACACGU
B7: target 1 MT 5'PFS ACA 3'PFS AAA (mixed)
RNA 1: CACCCGUGCAAAAAUGCAGGGGUCUAAAACUGAGCGGAUAACCUCUCUAUGG
RNA 2: GGGAAUGGAUCCACAUCUACGAAUUCACACCAUAGAGAGGUUAUCCGCUCAAAAAGAUCGGAAGAGCACACGU
B8: target 1 MT 5'PFS CAG 3'PFS AUA (mixed)
RNA 1: CACCCGUGCAAAAAUGCAGGGGUCUAAAACUGAGCGGAUAACCUCUCUAUGG
RNA 2: GGGAAUGGAUCCACAUCUACGAAUUCCAGCCAUAGAGAGGUUAUCCGCUCAAUAAGAUCGGAAGAGCACACGU
B9: target 1 MT 5'PFS CAG 3'PFS UCU (mixed)
RNA 1: CACCCGUGCAAAAAUGCAGGGGUCUAAAACUGAGCGGAUAACCUCUCUAUGG
RNA 2: GGGAAUGGAUCCACAUCUACGAAUUCCAGCCAUAGAGAGGUUAUCCGCUCAUCUAGAUCGGAAGAGCACACGU
B10: target 1 MT 5'PFS GAG 3'PFS UUU (mixed)
RNA 1: CACCCGUGCAAAAAUGCAGGGGUCUAAAACUGAGCGGAUAACCUCUCUAUGG
RNA 2: GGGAAUGGAUCCACAUCUACGAAUUCGAGCCAUAGAGAGGUUAUCCGCUCAUUUAGAUCGGAAGAGCACACGU
B11: target 1 MT 5'PFS GAG 3'PFS CUA (mixed)
RNA 1: CACCCGUGCAAAAAUGCAGGGGUCUAAAACUGAGCGGAUAACCUCUCUAUGG
RNA 2: GGGAAUGGAUCCACAUCUACGAAUUCGAGCCAUAGAGAGGUUAUCCGCUCACUAAGAUCGGAAGAGCACACGU
B12: target 1 MT 5'PFS GCA 3'PFS CGG (mixed)
RNA 1: CACCCGUGCAAAAAUGCAGGGGUCUAAAACUGAGCGGAUAACCUCUCUAUGG
RNA 2: GGGAAUGGAUCCACAUCUACGAAUUCGCACCAUAGAGAGGUUAUCCGCUCACGGAGAUCGGAAGAGCACACGU
B13: target 1 insG 3' of 14 (mixed)
RNA 1: CACCCGUGCAAAAAUGCAGGGGUCUAAAACUGAGCGGAUAACCUCUCUAUGG
RNA 2: GGGAAUGGAUCCACAUCUACGAAUUCGUACCAUAGAGAGGGUUAUCCGCUCACCGAGAUCGGAAGAGCACACGU
B14: target 1 MT 5'PFS GAG 3'PFS CUG (mixed)
RNA 1: CACCCGUGCAAAAAUGCAGGGGUCUAAAACUGAGCGGAUAACCUCUCUAUGG
RNA 2: GGGAAUGGAUCCACAUCUACGAAUUCGAGCCAUAGAGAGGUUAUCCGCUCACUGAGAUCGGAAGAGCACACGU
B15: target 1 MT 5'PFS CAG 3'PFS AUC (mixed)
RNA 1: CACCCGUGCAAAAAUGCAGGGGUCUAAAACUGAGCGGAUAACCUCUCUAUGG
RNA 2: GGGAAUGGAUCCACAUCUACGAAUUCCAGCCAUAGAGAGGUUAUCCGCUCAAUCAGAUCGGAAGAGCACACGU
B16: target 1 MT 5'PFS GCA 3'PFS CGA (mixed)
RNA 1: CACCCGUGCAAAAAUGCAGGGGUCUAAAACUGAGCGGAUAACCUCUCUAUGG
RNA 2: GGGAAUGGAUCCACAUCUACGAAUUCGCACCAUAGAGAGGUUAUCCGCUCACGAAGAUCGGAAGAGCACACGU
B17: target 1 MT 5'PFS AAA 3'PFS AUG (mixed)
RNA 1: CACCCGUGCAAAAAUGCAGGGGUCUAAAACUGAGCGGAUAACCUCUCUAUGG
RNA 2: GGGAAUGGAUCCACAUCUACGAAUUCAAACCAUAGAGAGGUUAUCCGCUCAAUGAGAUCGGAAGAGCACACGU
B18: target 1 MT 5'PFS ACA 3'PFS AAC (mixed)
RNA 1: CACCCGUGCAAAAAUGCAGGGGUCUAAAACUGAGCGGAUAACCUCUCUAUGG
RNA 2: GGGAAUGGAUCCACAUCUACGAAUUCACACCAUAGAGAGGUUAUCCGCUCAAACAGAUCGGAAGAGCACACGU
B19: target 1 MT 5'PFS GGC 3'PFS ACC (mixed)
RNA 1: CACCCGUGCAAAAAUGCAGGGGUCUAAAACUGAGCGGAUAACCUCUCUAUGG
RNA 2: GGGAAUGGAUCCACAUCUACGAAUUCGGCCCAUAGAGAGGUUAUCCGCUCAACCAGAUCGGAAGAGCACACGU
B20: target 1 MT 5'PFS AAA 3'PFS AUU (mixed)
RNA 1: CACCCGUGCAAAAAUGCAGGGGUCUAAAACUGAGCGGAUAACCUCUCUAUGG
RNA 2: GGGAAUGGAUCCACAUCUACGAAUUCAAACCAUAGAGAGGUUAUCCGCUCAAUUAGAUCGGAAGAGCACACGU
B21: target 1 MT 5'PFS GAG 3'PFS UUG (mixed)
RNA 1: CACCCGUGCAAAAAUGCAGGGGUCUAAAACUGAGCGGAUAACCUCUCUAUGG
RNA 2: GGGAAUGGAUCCACAUCUACGAAUUCGAGCCAUAGAGAGGUUAUCCGCUCAUUGAGAUCGGAAGAGCACACGU
B22: target 1 MT 5'PFS CAG 3'PFS UCC (mixed)
RNA 1: CACCCGUGCAAAAAUGCAGGGGUCUAAAACUGAGCGGAUAACCUCUCUAUGG
RNA 2: GGGAAUGGAUCCACAUCUACGAAUUCCAGCCAUAGAGAGGUUAUCCGCUCAUCCAGAUCGGAAGAGCACACGU
B23: target 1 MT 5'PFS AAC 3'PFS CUA (mixed)
RNA 1: CACCCGUGCAAAAAUGCAGGGGUCUAAAACUGAGCGGAUAACCUCUCUAUGG
RNA 2: GGGAAUGGAUCCACAUCUACGAAUUCAACCCAUAGAGAGGUUAUCCGCUCACUAAGAUCGGAAGAGCACACGU
B24: target 1 MT 5'PFS CAG 3'PFS UCG (mixed)
RNA 1: CACCCGUGCAAAAAUGCAGGGGUCUAAAACUGAGCGGAUAACCUCUCUAUGG
RNA 2: GGGAAUGGAUCCACAUCUACGAAUUCCAGCCAUAGAGAGGUUAUCCGCUCAUCGAGAUCGGAAGAGCACACGU

These binders were tested against T1, EsCas13d, nuclease-dead (assay: crRNA (strand 1, pre-loaded); Mg2+; 40 mM Tris-HCl pH 7.5, 150 mM NaCl, 6 mM MgCl2, 1 mM DTT, 0.1% Tween-20, 0.2 mg/ml BSA; 25 C; 10 min per concentration, then washed). Conditions: tags: His6-TwinStrep-SUMO cleaved; N-terminal SNAP kept (SNAP-Surface 488); label: 3' end held by stalled T7 RNA polymerase.
Work on B1 yielded a Kd of 42 ± 8 nM.
B2 showed a Kd of 16 ± 1.5 nM.
Work on B3 yielded a Kd of 28 ± 5.5 nM.
With B4 the Kd was about 31 nM.
B5 was tested, and the Kd was 32 ± 7 nM.
B6 was tested, and the Kd was 17.5 ± 2 nM.
For B7, the Kd was about 49 nM.
Work on B8 yielded a Kd of 29 ± 13.5 nM.
Binder B9 has a Kd of 19 ± 7 nM.
B10 showed a Kd of 23 ± 5.5 nM.
B11 was tested, and the Kd was 40 ± 15 nM.
With B12 the Kd was 25 ± 6.5 nM.
For B13, the Kd was 9.4 ± 0.33 nM.
B14 showed a Kd of about 23.5 nM.
B15 was tested, and the Kd was about 17.5 nM.
B16 gave a Kd of 41 ± 11 nM.
B17 gave a Kd of 28.5 ± 8 nM.
Binder B18 has a Kd of 15.3 ± 4.85 nM.
For B19, the Kd was 24.3 ± 5.25 nM.
B20 was tested, and the Kd was 28 ± 9.5 nM.
Binder B21 has a Kd of 9.9 ± 1.85 nM.
For B22, the Kd was 11.9 ± 5.25 nM.
In the case of B23, the Kd is reported as 39 ± 19.5 nM.
B24 was tested, and the Kd was 9 ± 1.75 nM.
